Paper PMC10711565
Like-named read-outs stand apart in the source and are kept apart here.

B1: HCV45:miR-122 complex (structured_RNA)
RNA 1: GCCAGCCCCCUGAUGGGGGCGACACUCCACCAUGAAUCACUCCCC
RNA 2: UGGAGUGUGACAAUGGUGUUUG

Columns and labels:
Assay in all cases: fluorescence anisotropy
PCBP2 [1] = biological target: T1, PCBP2 (UniProt Q15366 1-365)
PCBP2 [2] = biological target: T1, PCBP2; remark: listed apart in the source
PCBP2 [3] = biological target: T1, PCBP2; remark: listed apart in the source

T1 sequence (Q15366 whole entry): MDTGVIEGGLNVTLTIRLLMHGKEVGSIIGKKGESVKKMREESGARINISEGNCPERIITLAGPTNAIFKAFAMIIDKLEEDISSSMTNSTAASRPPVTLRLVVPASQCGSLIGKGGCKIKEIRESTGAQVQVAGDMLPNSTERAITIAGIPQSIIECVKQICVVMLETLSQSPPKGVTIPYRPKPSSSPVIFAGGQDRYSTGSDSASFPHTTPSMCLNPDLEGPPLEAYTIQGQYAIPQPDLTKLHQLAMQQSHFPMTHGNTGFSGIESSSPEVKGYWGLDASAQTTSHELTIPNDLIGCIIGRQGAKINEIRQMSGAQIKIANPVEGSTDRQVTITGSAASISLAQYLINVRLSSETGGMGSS

Binder	Kd (PCBP2 [1]) [µM]	other results
GCCAGCCCCCUGAUGGGGGCGACACUCCACCAUGAAUCACUCCCC (structured_RNA) [HCV45]	0.667 ± 0.034	–
B1	–	Kd (PCBP2 [2]): 9.88 ± 1.6 µM
GCCAGCCCCCUGAUGGGGGCGACACUCCACCAUGAAUCACUCCCCUG (structured_RNA) [HCV47]	–	binding result (PCBP2 [3]): binds
UGGAGUGUGACAAUGGUGUUUG (ssRNA) [miR-122]	5.33 ± 0.47	–
